In patent publication EP0799050B1, “RADIOLABELED ANNEXIN-GALACTOSE CLUSTER CONJUGATES” (NEORX CORPORATION, priority 1994, dated 1996):

Assay: blood clearance in the swine model
Conditions: in vivo
Procedure: Annexin V-galactose was radiolabeled with technetium-99m using a diamide dimercaptide (N2S2) chelate as described by Kasina et. al., J. Nucl. Med. 32: 1445-51, 1991. The preformed active ester chelate was diluted with 2.0 ml water and purified before conjugation to annexin V-galactose using a modified conditioned C-18 column (commercially available from J.T. Baker), as described by Fritzberg et. al., Proc. Natl. Acad. Sci. USA 85: 4025-29, 1988, washing with 2.0 ml water eight times followed by drying the column for 5 min and eluting with 100% acetonitrile. The solvent was removed under a steady stream of N2. Then 0.15 ml of PBS, 0.35 ml of annexin V-galactose (4.7:1 galactose:annexin V) at 1.0 mg/ml, and 0.2 ml of 0.2M bicarbonate buffer (pH 10.0) were added for conjugation to Tc-99m-N2S2-TFP ester. […] Fractions of 1.0 ml were collected, and fractions containing annexin V were pooled. Protein concentration was determined by UV absorption at 280 nm. […] The ITLC sheets were cut into two halves, and each half was counted in a gamma counter or a dose calibrator. […] An animal model, as previously described in Example III, was employed to evaluate blood clearance of the molecules.

Tc-99m-annexin V: annexin V radiolabeled with Tc-99m by a diamide dimercaptide N2S2 chelate (Example I)
%ID/g a: a = 0.0389 %ID/g | %ID/g b: b = 0.0300 %ID/g | t1/2 a: a = 9.6 min | t1/2 b: b = 46 min
